Results: publication PMC11488661 (Science immunology, 2024)

Target: eOD-GT8 (monomeric ligand) (Human immunodeficiency virus 1, …)

Binder	Kd [nM]
g5-D78-19_CLK09 (antibody, V domains shown) VH: QVQLVQSGAEVKKPGVSVKVSCKASGYTFNGYYMHWVRQAPGQGLEWMGWINPNNGGMNVARRFQDRVTLTRDTSFTTAYMELSRLRSDDSAVYYCARVGGLWFGEKWTFDIWGQGTMVTVSS VL: DIQMTQSPSSLSASVGDRVTITCQTSQDISTFLNWYQQRPGKAPKLLIYGASNLATGVPSRFSGSGSGTDFTFTISSLQPEDIATYYCQQYEFFGGGTKVEIK	0.2
g5-D78-23_CLK09 (antibody, V domains shown) VH: QVQLVQSGAEVKKPGASVKVSCKASGYTFTDYYMHWVRQAPGQGLEWVGWINPNSGGMNFAQRFQDRVTMTRDTSISTAYMELSRLQSDDSAVYFCARVGGLWIGEKWTFDIWGQGTMVTVSS VL: DIQMTQSPSSLSASVGDRVTITCQASQDISTYLNWYQQRPGKAPKLLIYGASNLATGVPSRFSGSGSGTDFTFTISSLQPEDIATYYCQLYEFFGGGTKVEIK	0.078
g28v2-D58-6_CLK19 (antibody, V domains shown) VH: QVQLVQSGAEVKKPGASVKVSCKASGYTFTGYYIHWFRQAPGQGLEWMGWMNPSYGGTNYAQKFQGRVTMTRDTSINTAYMELSRLRSDDTAVYYCTPVLAAYRWRFDYWGQGTLVTVSS VL: DIQMTQSPSSLSASVGDRVTITCQANQAIRNYLNWYQQKPGKAPKLLIYDVSNLETGVPSRFSGSGSGTDFTFTISSLQSEDIATYYCQQYETFGPGTKVDIK	1.06
g5-D78-21_CLK19 (antibody, V domains shown) VH: QVQLVQSGAEVKKPGASVKVSCKTSGYTFTGYFLHWVRQAPGQGLEWMGWINPNSGGINYAQKFQGRVTMTRDTSINTAYMELSRLRSDDTAVYYCTPVLTNFRWPFAFWGQGTLVTVSS VL: DIQMTQSPSSLSASVGDRVTITCQASQDIKNYLNWYQQKPGTAPKLLIYDTSNLETGVPSRFSGSGSGTDFTFTISSLQPEDIATYYCQQYETFGPGTKVDIK	0.29
g28v2-D58-9_CLK09 (antibody, V domains shown) VH: QVQLVQSGAEVKKPGASVKVSCKASGNTFTGNYIHWIRQAPGQGLEWMGWLNPNSGGTNYAQQLQGRVTMTRDTSISTAYMELRRLRSDDTAVYYCARVEGLWFGKEWAFDIWGQGTMVTVSS VL: DIQMTQSPSSLSASVGDRVTITCQASQGVSNYLNWYQQKPGKALKLLIYDVSNLETGVPSRFSGSGSGTDFTFTISSLQPEDIATYYCQQYEFFGGGTKVEIK	0.0455
g5-D78-6_CLK19 (antibody, V domains shown) VH: QVQLVQSGAEVKKPGASVKVSCKTSGYTFTGYFLHWVRQAPGQGLEWMGWINPNSGGINYAQKFQGRVTMTRDTSIHTAYMELSRLRSDDTAVYYCTPVLTNFRWPFAFWGQGTLVTVSS VL: DIQMTQSPSSLSASVGDRVTITCQASQDIKNYLNWYQQKPGTAPKLLIYDTSNLETGVPSRFSGGGSGTDFTFTISSLQPEDIATYYCQQYETFGPGTKVDIK	0.26
g5-D78-1_CLK19 (antibody, V domains shown) VH: QVQLVQSGAEVKKPGASVKVSCKASGYTFTGYFLHWVRQAPGQGLEWMGWINPNRGGVNYAQKFQGRVTMTRDTSINTAYMELSRLRSDDSAVYYCTPVLTNFRWRFDFWGQGTLVTVSS VL: DIQMTQSPSSLSASVGDRVTITCQASQDIKNYLNWYQQKPGTAPKLLIYDTSNLETGVPSRFSGSGSGTDFTFTISSLQPEDIATYYCQQYETFGPGTKVDIK	8
g28v2-D58-8_CLK09 (antibody, V domains shown) VH: QVQLVQSGAEVKKPGASVKVSCKASGYTFTDYYLHWVRQAPGQGLEWMGWINPSTGGRNHARQFQGRVAMTRDTSISTAYMELSRLRSDDTAVYFCTPVLATFRWRFVYWGQGTLVTVSS VL: DIQMTQSPSSLSASVGDRVTITCQASQGVSNYLNWYQQKPGKAPKLLIYDVSNLETGVPSRFSGSGSGTDFTFTISSLQPEDIATYYCQQYEFFGGGTKVEIK	0.444
g28v2-D58-7_CLK09 (antibody, V domains shown) VH: QVQLVQSGAEVKKPGASVKVSCKASGYTFTGYYIHWVRQAPGQGLEWMGWMNPTGGGTNYAQKFQGRVTMTRDTSINTAYMELSRLRSDDTAVYYCTPVLADYRWRFDYWGQGTLVTVSS VL: DIQMTQSPSSLSAFVGDRVTITCQASQGVSKYLNWYQQKPGKAPKLLIYDASNLETGVPSRFSGSGSGTDFTFTISSLQPEDIATYYCQQYEFFGGGTKVEIK	0.512
g5-D78-5_CLK19 (antibody, V domains shown) VH: QVQLVQSGAEVKKPGASVKVSCKASGYTFTDYFLHWVRQAPGQGLEWMGWINPNRGGVNYAQKFQGRVTMTRDTSINTAYMELSRLRSDDTAVYYCTPILTNFRWRFDFWGQGTLVTVSS VL: DIQMTQSPSSLSASVGDRVTITCQASQDIQNYLNWYQQKPGTAPKLLIYDTSNLETGVPSRFSGSGSGTDFIFTISSLQPEDIATYYCQQYEAFGPGTKVDIK	2
g5-D78-2_CLK19 (antibody, V domains shown) VH: QVQLVQSGAEVKKPGASVKVSCKTSGYTFTGYFLHWVRQAPGQGLEWMGWINPNSGGINYAQKFQGRVTMTRDTSINTAYMELSRLRSDDTAVYYCTPVLTNFRWPFAFWGQGTLVTVSS VL: DIQMTQSPSSLSASVGDRVTITCQASQDIKNYLNWYQQKPGTAPKLLIYDTSNLETGVPSRFSGRGSGTDFTFTISSLQPEDIATYYCQQYETFGPGTKVDIK	0.42
g5-D78-10_CLK19 (antibody, V domains shown) VH: QVQLVQSGAEVKKPGASVKVSCKASGYTFTGYFIHWVRQAPGQGLEWMGWINPSYGAVNYARKFQGRVTMTRDTSISTAYMELQRLRSDDTAIYHCTIALAGYRWGFDYWGQGALVTVSS VL: DIQMTQSPSSLSAFVGDRVTITCQARLDIRYSLNWYQQKPGKAPNLLIYDASNLETGVPSRFSGSGSGTNFTFTISTLQPEDIATYYCQQYETFGPGTKVHIK	38
g5-D78-12_CLK19 (antibody, V domains shown) VH: QVQLVQSGAEVKKPGASVKVSCKASGYTFTGYYIHWVRQAPGQGLEWMGWINPSYGAVNYARKFQGRVTMTRDTSISTAYMELQRLRSDDTAIYHCTIALAGYRWGFDYWGQGALVTVSS VL: DIQMTQSPSSLSAFVGDRVTITCQARLDIRYSLNWYQQKPGKAPNLLIYDASNLETGVPSRFSGSGSGTNFTFTINTLQPEDIATYYCQQYETFGPGTKVDIK	12
g5-D78-16_CLK19 (antibody, V domains shown) VH: QVQLVQSGAEVKKPGASVKVSCKASGYTFTGYYIHWVRQAPGQGLEWMGWINPSYGAVNYARKFQGRVTMTRDTSISTAYMELQRLRSDDTAIYHCTIALAGYRWGFDYWGQGALVTVSS VL: DIQMTQSPSSLSAFVGDRVTITCQARLDIRYSLNWYQQKPGKAPNLLIYDASNLETGVPSRFSGSGSGTNFTFTISTLQPEDIATYYCQQYETFGPGTKVHFK	12
g5-D78-22_CLK19 (antibody, V domains shown) VH: QVQLVQSGAEVKKPGASVKVSCKASGYTFTGYYIHWVRQAPGHGLEWLGWINPNYGAVNYARKFQGRVTLTRDTSISTAFMELQSLRSDDTAIYHCTISLAGYRWGFDYWGQGALVTVSS VL: DIQMTQSPSSLSAFVGDRVTITCQARLDIRYSLNWYQQKPGKAPNLLIYDVSNLEIGVPSRFSGSGSGTNFTFTISTLQPEDIATYYCQQYETFGPGTKVDIK	100
g5-D78-14_CLK19 (antibody, V domains shown) VH: QVQLVQSGAEVKKPGASVKVSCKASGYTFTGYYIHWVRQAPGQGLEWMGWINPSYGAVNYARKFQGRVTMTRDTSITTAYMELQRLRSDDTAIYYCTIALAGYRWGFDYWGQGALVTVSS VL: DIQMTQSPSSLSAFVGDRVTITCQARLDIRYSLNWYQQKPGKAPNLLIYDASNLETGVPSRFSGSGSGTNFTFTINTLQPEDIATYYCQQYETFGPGTKVDIK	11
g5-D78-18_CLK19 (antibody, V domains shown) VH: QVQLVQSGAEVKKPGASVKVSCKASGYTFTGYYIHWVRQAPGQGLEWMGWINPTYGAVNYARKFQGRVTMTRDTSISTAYMELQSLRSDDTAIYHCTIALAGYRWGFDYWGQGALVTVSS VL: DIQMTQSPSSLSAFVGDRVTITCQARLDIRYSLNWYQQKPGKAPNLLIYDASNLETGVPSRFSGSGSGTNFTFTISTLQPEDIATYYCQQYETFGPGTKVDIK	12
g5-D78-7_CLK19 (antibody, V domains shown) VH: QVQLVQSGAEVKKPGASVKVSCKASGYTFTGYYIHWVRQAPGQGLEWMGWINPSYGAVNYARKFQGRVTMTRDTSISTAYMELQRLRSDDTAIYHCTIALAGYRWGFDYWGQGALVTVSS VL: DIQMTQSPSSLSAFVGDRVTITCQARLDISYSLNWYQQKPGKAPNLLIYDASNLETGVPSRFSGSGSGTNFTFAISALQPEDIATYYCQQYETFGPGTKVHIK	23
g5-D78-13_CLK19 (antibody, V domains shown) VH: QVQLVQSGAEVKKPGASVKVSCKASGYIFTDYNMHWVRQAPGQGLEWMGWINPSFGGRNIVQKFQGRVTMTRDTSISTAYMELSGLRSDDTAVYFCTPVLAPFRWRFAYWGQGTLVTVSS VL: DIQMTQSPSSLSASVGDRVTITCQASQDINYLNWYQQKPGKAPKLLIYDASNLETGVPSRFSGSGSGTDFTFTISSLQPEDIATYYCQQYAAFGPGTKVNIK	4.9
g5-D78-20_CLK19 (antibody, V domains shown) VH: QVQLVQSGAEVKKPGASVKVSCKASGYIFTDYNMHWVRQAPGQGLEWMAWINPRSGGRNIVQKFQGRVTMTRDTSISTAFMELSGLRSDDTAVYFCTPVLAPFRWRFAYWGQGTLVTVSS VL: DIQMTQSPSSLSASVGDRVTITCQASQDINYLNWYQQKPGKAPKLLIYDASNLETGVPSRFSGSGSGTDFTFTISSLQPENIATYYCQQYAAFGPGTKVDIK	3.4
g5-D78-4_CLK19 (antibody, V domains shown) VH: QVQLVQSGAEVKKPGASVKVSCKASGYIFTDYNMHWVRQAPGQGLEWMGWINPRFGGRNIVQKFQGRVTMTRDTSSSTAYMELSGLRSDDTAVYFCTPVLAPFRWPFAYWGQGTLVTVSS VL: DIQMTQSPSSLSASVGDRVTITCQASQDINYLNWYQQKPGKAPKLLIYDASNLETGVPSRFSGSGSGTDFTFTISSLQPEDIATYYCQQYAAFGPGTKVDIK	2.1
g5-D78-15_CLK19 (antibody, V domains shown) VH: QVQLVQSGAEVKKPGASVKVSCKASGYIFTDYNMHWVRQAPGQGLEWMGWINPSFGGRNIVQKFQGRVTMTRDTSISTAYMELSGLRSDDTAVYFCTPVLAPFRWPFVYWGQGTLVTVSS VL: DIQMTQSPSSLSASVGDRVTITCQASQDINYLNWYQQKPGKAPKLLIYDASNLETGVPSRFSGSGSGTDFSFTISSLQPEDIATYYCQQYAAFGPGTKVDIK	0.92
g5-D78-3_CLK19 (antibody, V domains shown) VH: QVQLVQSGAEVKKPGASVKVSCKASGYIFTDYNMHWVRQAPGQGLEWMGWINPSFGGRNIVQKFQGRVTMTRDTSISTAYMELSGLRSDDTAVYFCTPVLAPFRWPFAYWGQGTLVTVSS VL: DIQMTQSPSSLSASVGDRVTITCQASQDINYLNWYQQKPGKAPKLLIYDASNLETGVPSRFSGSGSGTDFTFTISSLQPEDIATYYCQQYAAFGPGTKVDNK	0.87
